Data taken from patent US20140357549A1 (UNIVERSITY OF PITTSBURGH OF THE COMMONWEALTH SYSTEM OF …, published 2014).

Molecular target: T1, Nox1 (UniProt Q9Y5S8 1-564, limits assumed)
T1 sequence (looked up): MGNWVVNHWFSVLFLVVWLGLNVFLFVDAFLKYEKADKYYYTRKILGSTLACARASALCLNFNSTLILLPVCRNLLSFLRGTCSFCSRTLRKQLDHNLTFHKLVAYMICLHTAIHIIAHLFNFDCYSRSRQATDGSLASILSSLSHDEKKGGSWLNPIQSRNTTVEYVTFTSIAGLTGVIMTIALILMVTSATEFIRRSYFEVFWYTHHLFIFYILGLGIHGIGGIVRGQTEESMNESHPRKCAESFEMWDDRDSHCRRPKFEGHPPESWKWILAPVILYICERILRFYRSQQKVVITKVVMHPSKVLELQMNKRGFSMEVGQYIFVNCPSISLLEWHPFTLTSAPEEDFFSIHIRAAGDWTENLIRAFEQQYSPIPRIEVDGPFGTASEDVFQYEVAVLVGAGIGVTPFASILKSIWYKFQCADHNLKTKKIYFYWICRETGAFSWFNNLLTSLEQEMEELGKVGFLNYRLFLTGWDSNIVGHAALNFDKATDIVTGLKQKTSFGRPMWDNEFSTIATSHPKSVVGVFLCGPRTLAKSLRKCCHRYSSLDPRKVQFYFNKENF
Experiment: cell-based or functional assay

inhibition of O2^- production by Nox1-transfected COS22 cells (SOD-inhibitable cytochrome c reduction), IC50: 19 nM
Binder: H-EPVDALGKAKV-NH2 [NoxA1ds]
